Results: the DeepSol protein solubility set

Test: soluble on expression in E. coli; label from the status in PepcDB or PDB records

Sequence	soluble on expression in E. coli
MSLHPEQIHNAINCLCLAATATVAGAMISMGCTTGQRSNSRNSRKSSRSNKSKRSQRSKRRSAQRKKSSSRRKKKLRKEKSRKSQRSKRKKRESERRKKERSKRIARSKKSIKRDRERDSDSSRIKKSGSKRNLEKSNRDDSKRKISKDKNSRRSSQEKSHKYSEPLFIPPVDYDDRDRSLKKKKSVRDNNEEGSRRSSSRDKSKDMKEKSQQSKKDSSRKSKKQQKSEKKKSAEQDNRSDPEDDREAEAPNWRRRRRAKEDQNVKARKTKKVKKNEEVPSKKSSKMSKRSKRSTDENLETAKSSRILKDSEPKSSRSSVTSQKIDSSRGMSKLRADALKRMEPKLLVSPNANSDRFQCNEKGCQKGQCSSEARYAQNVRRSASQKSLRAPKENKLKDGSAKTPKVSSTTTPPVDTMRTPTQEPRSIYIETGKSTYGEASKTSGNNARSVYLADPVSAPKAYSVTPQKSTKTPSERKSEKNLEKKASKKSIKSSRSGIQQREVTKTSSKHSSKHSKAPSSKKSSKKSSKKEQKSRALSNSSSKKSVGSHRNKSNR	not soluble
MSLKLWKNATFYQMTAEGDQVSAVLTENGQICAVGEAMDLEKQYVANITETIDLEGKVVFPGFVDAHIHLLWYGQALERLNLNQTTTKKEALALIAERTKQIASDEWLFVEGYDENKWSDEQTLISLADLDEVSQTNPILVRRIDYHSVSINSALQEKIADFSETGFDGGGEIVRDKTGEFIGVLRDNATTMAIDSFPAATPSELSAWLEIAITDLWSKGITGAHSEDLHYFTGFASTLAAFRNTIGSNKMPFRAHLLVHHAELAAFSASNESFVSGDAFLELGAMKIFYDGTVGSRTALMSAGYADNPSEKGLQIHSDQAFEDLVKAARKAGLPVAIHILGDQAFANVIRTLRANPPKEGQYDRLIHTPWLTEALIEEATGLPVLFDIQPQFMASDLPWALEVLGDNHPPLAFAWKTLLQAGFPLAGGSDAPIEVPNPFWGIHAAVTRTANADLDGVGYWPEQALTVFEAIQLYTKGAAFASYKTTTRGQIAPGFVADFTILAEDPFQMKQAELRQVSVVMTVVNEQIVYQKKEGHHHHHH	soluble
GSAAEVMKKYCSTCDISFNYVKTYLAHKQFYCKNKP	soluble
GSHMERPESELIRQSWRVVSRSPLEHGTVLFARLFALEPSLLPLFQYNGRQFSSPEDSLSSPEFLDHIRKVMLVIDAAVTNVEDLSSLEEYLTSLGRKHRAVGVRLSSFSTVGESLLYMLEKSLGPDFTPATRTAWSRLYGAVVQAMSRGWDGE	soluble
MGSDKIHHHHHHMRLVQYRMPDGSRRVGRVSDDDNHLHPLDKTGSVLELAEAAIAEDMSIASLVEKRTAAATIDYDALLRNGRVLAPVDHPEPARFLVTGTGLTHTGSAAARNQMHVLTHGDGAEESDSLKIFRMGLEGGKPGAGKIGIQPEWFFKGVGTCVVPPGAPLPMPAFAKAGAEEAEIVGLYLNGPDGHPYRIGYALGNEYSDHVTEGENYLYLAHSKLRSCSIGPELLIGDLPEEVRGHSRILRDGTVIWEQEFLSGEAHMSHSIANLEHFHFRYPMHRRAGDLHAYFFGAAVMSYASGIKTASGDEYEIQAQAFGKPLRNRMVSVPDEGLVTVTPL	not soluble
MSLIDARLATEIVVRTVEVMPFDVNVMDAHGVILASSDAARVGEIHAGAQLALARARAVEIDDAMAANLSGARPGINLPLSVRGKVCGVIGVTGEPDAVRGFGELLRVTAELILEREQLTVELRRNARHREEFVLQLLRRTAAAAELEAWADRLGIDMRLAHAAIVCRLSGVDTEPEAGVGQIEAMQSQLAQEWPQLLSAKTSYRELVMFDAVDARAGRDGVLATHAGKRLAALEDTLRKVATQPFSLALGIALDGIDGFERSYQCALATLRVGAARTPQRAAYSYYDFVLPVLLSALSQGWQARQLRLPLTRLLARERRSGALLDTLKAWYAHDGHPSATAQALGIHRNTLDYRLQQIRDATGLDLGAIDDRLWLYIALQTMAGEGHHHHHH	soluble
MSLILESLVTTLDEQGRINLAPLGPIVLPPQSPGGLPQFLLRPYEGSTTCDNLLASGNAVIHVIDDALLIAKTAIGKVDASDLVVPIPGLEDTHVRLKRCHRWFAVRVTQRAGTPPRHELTARCLASGLVDPFFGFNRAKHAVIEAAVAATRLHLLPPEEIEEELERARIAIEKTGGEPEREALQLIRRHVRESSISEGHHHHHH	soluble
MIGATGSGGTGGHNDVVRQGFICPFCMEDFGEYERLICHVENDHPEEDSSDLAGMFVSNVKGFFDKAKRGIQKLDAKKSIADLASNVETEFTETTEKLVERAPLPRIPKPLPPDEILPGTRRSKTREFLSTRELNINEVAVRTNMLIIRLDRLINGGPKDKDPVKRKEFEREVVPWLDDAEAVCCPLCASRFGLTRRRHHCRLCGRVLCHSCSKFLSFDTAKTLTSSSNPLGDTHIIVEEPNTVENEQELLQPEENGRRSFFSLSQKSMDKMKRAMAGAVQKVHSAATGEEIIAGALNEQDLSEHMRVCNLCLRDLHFRESQMDKKEPPEFVQQYDLMKVMIEEVKNLVPTYVRVVTSLKNGESVYSHKHGEELRSKCLEIQKSIDYVSKKIAEGANDKPNSAKEQQLRKNIRLYAVQALQGLIGQMESLPTAEECSNLIIKRKERRAKDFARVNRTVMKMSSSMPQLQEQHSHLNSTSSVSSFGGPSSIDDGWSAEDNDLVFEPSSIEDDTIQTDHPLYEQREQLRKFLFQASATGKLDEMDILERNLKEIEEEMMRLGLSC	not soluble
MGSDKIHHHHHHMQKDKIKTDWSHGENPEDYKCCVAFHGHDCPGLAVGYRAAQAALAALCGERAEDEELVAIVETDACGVDALQVLTGCTFGKGNLIYQDHGKHVFTLIERKSGRGVRVALKAGVMEMNERHLTLMEKVHQMTATPHETAEFWKIHSQKALEILQKPIETLFNIQPINRTLPPKARREPSRLCARCGEPAMGSKLVVLDGREVCRDCLQPEER	not soluble
MKYLPQQDPQVFAAIEQERKRQHAKIELIASENFVSRAVMEAQGSVLTNKYAQGYPGRRYYGGCEYVDIVEELARERAKQLFGAEHANVQPHSGAQANMAVYFTVLEHGDTVLGMNLSHGGHLTHGSPVNFSGVQYNFVAYGVDPETHVIDYDDVREKARLHRPKLIVAAASAYPRIIDFAKFREIADEVGAYLMVDMAHIAGLVAAGLHPNPVPYAHFVTTTTHKTLRGPRGGMILCQEQFAKQIDKAIFPGIQGGPLMHVIAAKAVAFGEALQDDFKAYAKRVVDNAKRLASALQNEGFTLVSGGTDNHLLLVDLRPQQLTGKTAEKVLDEVGITVNKNTIPYDPESPFVTSGIRIGTAAVTTRGFGLEEMDEIAAIIGLVLKNVGSEQALEEARQRVAALTDGG	soluble
DTTYGCPGEWRCLKAAALGEGKFDEPVRVIGFVRCECPGNTLVPNIGMTMKLSEVKPDAIYFSSCMLRDPGCPYRSAEEWAKIVENAFQIPVKLGTH	not soluble
MAHHHHHHMFHGMNKTNTWAVILSSSRYFFNLRHTTNALAMYHLCRKHGMDDDHILVFLSDSYACDPRKPNPATIYGAPAQAEQPNLYGCNIRVDYASYDVGVRRFLGVLQGRYDENTPPSRRLDTDENSNIIIYAAGHSAEKFFKFQDSEFMSSTDIADTLMMMWEQRRYRKLVFLVDTCRALSLCLEIKAPNVVCLASSEAHLDSYSHHLDPPSGFTVITRWTFEFLEVLKDSKCRPENGEVTLLQKSFYDFNYGPERLSLPQPLSEPAHFDAVNRPNAVREWKMDEFFCEQDRDKIPVELRYDLF	not soluble
MGSDKIHHHHHHMITAAVVTFHTSRKDLIRLIDCVLQSSVDKFFIIDNSTNDALRELESVSERITYIYSDNLGFGSGHNIAIDRAIDLGSDYHIIINPDIYWNGDIIEQLVQFMDQNKDCGLVMPKILYPNGEVQYLCKLLPTPLDLFGRRFIPFKMFQEKRNAWYEMHWSGYDKVMEVPSLSGCFMFIRTDILKKTGGFDKRFFMYAEDMDLCRRIGEITRTMYYPSVLVFHEYEKGSYKNRKLLKYHICSIIKYFNKWGWFIDKKRRKKNDYCLKLTEHIRN	not soluble
MPGHELEDVINQRLNLYDVLELPTPLDVHTIYDDLPQIKRKYRTLALKYHPDKHPDNPSIIHKFHLLSTATNILTNADVRPHYDRWLIEFLRKTNDIERNKLIQKLEESESSTIPTTTPHPDLLQIQRHGELLRKLKHFNLPYGDWKHLNTQDQENASQHPYYDCSTLRIVLDNFLQSNNKSNCLSHLRNQVFITLSANEIYDIYFSERNNYSKDDSIIIYTVFDTPITAQHVFRNWSSGNLIPTVKDISPLIPLHYYSDFNLETELNDDIARLVSNEPILLD	not soluble
MGSDKIHHHHHHMKLAVYVHVPFCKSKCVYCDFYSVVSEKFDEYFSHLLREIDLYEEVLSESEIKTVYFGGGTPSVVPPSFLKMVLEKLERVSRGFTPDEITIEVNPESVETEKLKIYKQIGINRISLGVQACDDTVLKNAGRLYKEETLKKKAKIVLEQFENVNFDFILGLPGETDITLKKDFRFLEEFPPQHVSLYLLEVDERTRLFDLIQKGLVELPEEDDVERRHDLFVEFLKERGFLRYEISNFAKPGKKSLHNLFYWRNENYLGLGVSAGGHIGRFRYVNASDLKEYEEKITKGELPYEYVHENTEEEEALETVFMGLRIKEGVELNRVKILLPLLEKLQKKYPCYLKVKNGKIFLSEDGMNFSKKILSDLIEWYREGGR	not soluble
MSLHLSNVILHQLCKNDQDELVVKLRPASLENDASTENLVAELHRVFHSKAGKGFGSFQSDSEFQFWLQEMRKGERDFYDFSQISANRLKEELIKYPFADEGILVFAEYQSLATDYLFIGILPMNQSLKVTEGLDISATDYLDITKMDIAARIDLSSYETDKESNRYLQYIKGRVGRKVADFFLDFLQADIGLDTKQQNLVLMQAVDDFCADSKLEKQEVNEYKKQVYNYCNEQIKSGEEVQISELSGELPPSQDGTSFMDFTKEQGYELEESFPGDRSTVRKLTKYVGAGGGLNISFDSLLLGERIFYDPETDTLTIKGTLEHHHHHH	not soluble
MSPIDEFTYIKQNKIVYDSNSLIQLYFPIMGSDAMALYDYFVHFFDDGIRRHKFSEVLNHLQYGMPRFQDALVMLTALDLLTVYQATGTYLVKLNQAMSNELFLSNPIYRRLLEKRIGEVAVAELDMKIPKNARDISKKFTDVFSDLGQPKQEVNRSKNVFDLESFKRLMMRDGLRFNNEKDDVLGIYSVSELYHLNWYDTYQLAKQTAINGMIAPQRMKVQQNEGQHIKDNQSFTNNEKVILRESKNDSALVFLEKIKRSRKAVTTSGEKTLLEDLAKMNFLDEVINVMVLYTLNKTKSANLNKAYIMKVANDFAFQNVMTAEDAVLKIRDFSDQKVRTKTETKKKQSNVPEWSNPDYKDEVSPEKEIELEQFKTDALKRLERLGKDGES	not soluble
MSLVGDVYLGVGSASSEYWAAYIEGAKAVASSLGKDVNVIPSEFDGQKLLEQFGAVFAAGCEDCVVTVDPASNAFTKAMIERADTAGAKYVNLWNRPDEIHPWDTVPNTWIANISFDGVDSGYQNGMALCNALGGKGNIVALNGIPDNPPAKQRIAGLHKALQECPGLKLLDTQVGNWDQTQGQSITRAWLAKYGDELNGIFSANDGMALGAVAALREKGLVGKILVTGSDGSSDVIKLIEKGEMLSTMHIDGYVQGAYAVALAAAAVKGDIKMDELKQDQRDFFLSQTLVTKDNAASVLNSKKDASQFSYDALKGNFWAASVGQIPAGANEGHHHHHH	soluble
MAHHHHHHGICSSAPTLGEIWKRKLNQLDAKEFMAYRRRFVVEVDRNEAREALAKGKTNTGHAVSRGTAKLAWIDERGGVELKGTVVDLGCGRGSWSYYAASQPNVREVKAYTLGTSGHEKPRLVETFGWNLITFKSKVDVTKMEPFQADTVLCDIGESNPTAAVEASRTLTVLNVISRWLEYNQGCGFCVKVLNPYSCDVLEALMKMQARFGGGLIRVPLSRNSTHEMYFVSGIKNNIMGNVTAVSRQLLKRMEEQGGERVVPDYKFSTGTRSNL	soluble
